# Reference: patent US20190194300A1
# Positions count from the first letter of the chain named.
# B1: wild type anti-AIP2 antibody E7 (antibody, V domains shown)
# VH: EVQLVQSGAEVKKPGASVRVSCKTSGYSFTSYDINWVRQTTGQGLEWMGWVNPTSGSTGYAQKFQGRVTMTANTAINTAYMELRDLRSEDTAVYFCVRDVPFDPWGQGTLVTVSS
# VL: QSVLTQPASVSGSPGQSITISCTGTSSDVGKYTFVSWYQQHPGKAPKVMVYEVNKRPLGVSPRFSGSKSGNTAYLTISGLQAEDEADYYCSSYTSSSTVVFGGGTKLTVL
# B2: variant anti-AIP2 antibody X12 (antibody, V domains shown)
# VH: B1 VH with E1Q, S31V, F102V, L110T
# VL: B1 VL with T33L
# B3: variant anti-AIP2 antibody X18 (antibody, V domains shown)
# VH: B1 VH with F29G, F102V
# VL: B1 VL with T94A
# Biological target: Staphylococcus aureus autoinducing peptide-2 (AIP2) (Staphylococcus aureus)
# Assay: SPR, BiaCore T200
Binder,Ka [M⁻¹],Kd [nM],koff [s⁻¹],kon [M⁻¹ s⁻¹]
B1,1.85e+07,53.9,0.027,501000
B2,1.54e+07,64.9,0.012,186000
B3,2.85e+07,35,0.02,570000
